Source: publication PMC4322223, “Biochemical and structural characterization of a thermostable β-glucosidase from Halothermothrix orenii for galacto-oligosaccharide synthesis” (Applied Microbiology and Biotechnology, 2014)

Tests used:
Test in all cases: purified protein
Settings in all cases: 65 °C, 20 mM HEPES, 150 mM NaCl, pH 7.0
purified protein [1] = substrate: O=[N+]([O-])c1ccc(O[C@@H]2O[C@H](CO)[C@@H](O)[C@H](O)[C@H]2O)cc1
purified protein [2] = substrate: O=[N+]([O-])c1ccc(O[C@@H]2O[C@H](CO)[C@H](O)[C@H](O)[C@H]2O)cc1
purified protein [3] = substrate: O=[N+]([O-])c1ccccc1O[C@@H]1O[C@H](CO)[C@@H](O)[C@H](O)[C@H]1O; assay type: biochemical, Halothermothrix orenii
purified protein [4] = substrate: O=[N+]([O-])c1ccccc1O[C@@H]1O[C@H](CO)[C@H](O)[C@H](O)[C@H]1O; assay type: biochemical, Halothermothrix orenii

B1: HoBGLA (Halothermothrix orenii H 168) (protein)
chain: MAKIIFPEDFIWGAATSSYQIEGAFNEDGKGESIWDRFSHTPGKIENGDTGDIACDHYHLYREDIELMKEIGIRSYRFSTSWPRILPEGKGRVNQKGLDFYKRLVDNLLKANIRPMITLYHWDLPQALQDKGGWTNRDTAKYFAEYARLMFEEFNGLVDLWVTHNEPWVVAFEGHAFGNHAPGTKDFKTALQVAHHLLLSHGMAVDIFREEDLPGEIGITLNLTPAYPAGDSEKDVKAASLLDDYINAWFLSPVFKGSYPEELHHIYEQNLGAFTTQPGDMDIISRDIDFLGINYYSRMVVRHKPGDNLFNAEVVKMEDRPSTEMGWEIYPQGLYDILVRVNKEYTDKPLYITENGAAFDDKLTEEGKIHDEKRINYLGDHFKQAYKALKDGVPLRGYYVWSLMDNFEWAYGYSKRFGLIYVDYENGNRRFLKDSALWYREVIEKGQVEAN
notes: full length, 451 residues, GH1; pNIC28-Bsa4 N-terminal His6-TEV tag cut off with TEV protease; expressed in E. coli BL21(DE3); 53 kDa
- Km (purified protein [1]): 0.296 ± 0.001 mM
- kcat (purified protein [1]): 55.2 s⁻¹
- kcat/Km (purified protein [1]): 187000 M⁻¹ s⁻¹
- Km (purified protein [2]): 8.34 ± 0.61 mM
- kcat (purified protein [2]): 156 s⁻¹
- kcat/Km (purified protein [2]): 18700 M⁻¹ s⁻¹
- Km (purified protein [3]): 0.386 ± 0.002 mM
- kcat (purified protein [3]): 94.6 s⁻¹
- kcat/Km (purified protein [3]): 245000 M⁻¹ s⁻¹
- Km (purified protein [4]): 6.35 ± 0.8 mM
- kcat (purified protein [4]): 288 s⁻¹
- kcat/Km (purified protein [4]): 45300 M⁻¹ s⁻¹
